Data on 2 molecules can be found in patent publication US20030108545A1.

Values joined by “and” are separate entries in the source; they are usually repeats but may differ in a detail not shown here. Equal values may be shown once. Read-outs that look alike come from different tables or passages of the source.

In assay [1] the target is soluble fusion protein KDR-AP (KDR (VEGFR-2) extracellular domain fused to human placental alkaline phosphatase) (human) (UniProt P35968). Put plainly: BIAcore, KDR-AP immobilized. A general note: In SPR one partner is held on a chip, and binding of the other changes the refractive index at the surface.
In assay [2] the target is KDR (VEGFR-2) expressed on the surface of HUVEC (human) (UniProt P35968). Put plainly: cell-based or functional assay.
The target of assay [3] is soluble fusion protein KDR-AP (KDR (VEGFR-2) extracellular domain fused to human placental alkaline phosphatase) (human) (UniProt P35968). Put plainly: BIAcore, KDR-AP immobilized. This is another data set of the same source.
For assay [4] the target is unchanged. Put plainly: competitive VEGF blocking ELISA: KDR-AP binding to immobilized VEGF165. For orientation: ELISA stands for enzyme-linked immunosorbent assay.
For assay [5], the target named is human KDR (VEGFR-2), immobilized on ELISA plates (construct not stated) (human) (UniProt P35968). Put plainly: direct binding ELISA on KDR-coated plates, anti-E tag-HRP detection.
Assay [6] has as its target soluble fusion protein KDR-AP (KDR (VEGFR-2) extracellular domain fused to human placental alkaline phosphatase) (human) (UniProt P35968). Put plainly: competitive ELISA: KDR-AP binding to immobilized VEGF165.
Assay [7] has as its target human KDR (VEGFR-2), immobilized on ELISA plates (construct not stated) (human) (UniProt P35968). Put plainly: direct binding ELISA on KDR-coated plates (ED50, 50% of maximum binding).
Assay [8] addresses chimeric receptor mouse flk-1 (VEGFR-2)/human fms on transfected 3T3 cells (C441) (mouse; human) (UniProt P35918). Put plainly: cell-based or functional assay.
The target is the same in assay [9]. Put plainly: saturation binding to intact C441 cells, colorimetric detection (FIG. 7).
Setting [10] is: scale: % of the fully stimulated receptor control.

Chain of chimeric receptor mouse flk-1 (VEGFR-2)/human fms on transfected 3T3 cells (C441) (mouse; human) (P35918 other isoform, or with tags, fused parts or gaps mutant limits assumed): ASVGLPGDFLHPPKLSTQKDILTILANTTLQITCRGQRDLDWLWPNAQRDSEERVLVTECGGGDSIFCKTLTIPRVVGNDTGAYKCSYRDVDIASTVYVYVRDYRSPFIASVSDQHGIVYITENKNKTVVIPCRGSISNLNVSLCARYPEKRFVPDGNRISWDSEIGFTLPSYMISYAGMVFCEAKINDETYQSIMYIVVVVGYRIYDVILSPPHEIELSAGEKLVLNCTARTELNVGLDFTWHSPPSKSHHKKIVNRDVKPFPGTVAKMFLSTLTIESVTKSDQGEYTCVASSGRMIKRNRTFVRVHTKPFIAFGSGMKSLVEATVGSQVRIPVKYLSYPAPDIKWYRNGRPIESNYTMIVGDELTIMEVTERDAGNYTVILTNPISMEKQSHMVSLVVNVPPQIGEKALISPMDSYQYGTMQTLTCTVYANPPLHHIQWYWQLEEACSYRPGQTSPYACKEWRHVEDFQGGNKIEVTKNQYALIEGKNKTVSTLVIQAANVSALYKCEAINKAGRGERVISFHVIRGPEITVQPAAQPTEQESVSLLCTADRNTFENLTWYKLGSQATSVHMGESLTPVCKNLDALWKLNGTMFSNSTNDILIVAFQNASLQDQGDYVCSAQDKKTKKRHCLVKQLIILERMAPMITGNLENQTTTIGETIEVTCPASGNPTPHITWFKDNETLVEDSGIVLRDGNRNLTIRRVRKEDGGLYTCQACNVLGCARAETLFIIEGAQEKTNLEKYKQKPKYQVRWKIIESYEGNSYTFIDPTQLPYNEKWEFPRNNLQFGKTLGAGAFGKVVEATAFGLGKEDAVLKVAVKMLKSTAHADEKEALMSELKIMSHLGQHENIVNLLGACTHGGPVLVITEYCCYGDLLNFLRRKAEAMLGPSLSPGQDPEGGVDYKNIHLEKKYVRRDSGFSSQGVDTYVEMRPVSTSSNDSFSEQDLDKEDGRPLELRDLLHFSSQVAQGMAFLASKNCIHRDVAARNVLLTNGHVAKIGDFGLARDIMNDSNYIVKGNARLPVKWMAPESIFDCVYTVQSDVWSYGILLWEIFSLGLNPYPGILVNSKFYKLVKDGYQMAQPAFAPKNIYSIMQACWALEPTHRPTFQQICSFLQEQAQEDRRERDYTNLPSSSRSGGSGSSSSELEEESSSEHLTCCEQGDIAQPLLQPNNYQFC
Chain of soluble fusion protein KDR-AP (KDR (VEGFR-2) extracellular domain fused to human placental alkaline phosphatase) (human) (P35968 other isoform, or with tags, fused parts or gaps): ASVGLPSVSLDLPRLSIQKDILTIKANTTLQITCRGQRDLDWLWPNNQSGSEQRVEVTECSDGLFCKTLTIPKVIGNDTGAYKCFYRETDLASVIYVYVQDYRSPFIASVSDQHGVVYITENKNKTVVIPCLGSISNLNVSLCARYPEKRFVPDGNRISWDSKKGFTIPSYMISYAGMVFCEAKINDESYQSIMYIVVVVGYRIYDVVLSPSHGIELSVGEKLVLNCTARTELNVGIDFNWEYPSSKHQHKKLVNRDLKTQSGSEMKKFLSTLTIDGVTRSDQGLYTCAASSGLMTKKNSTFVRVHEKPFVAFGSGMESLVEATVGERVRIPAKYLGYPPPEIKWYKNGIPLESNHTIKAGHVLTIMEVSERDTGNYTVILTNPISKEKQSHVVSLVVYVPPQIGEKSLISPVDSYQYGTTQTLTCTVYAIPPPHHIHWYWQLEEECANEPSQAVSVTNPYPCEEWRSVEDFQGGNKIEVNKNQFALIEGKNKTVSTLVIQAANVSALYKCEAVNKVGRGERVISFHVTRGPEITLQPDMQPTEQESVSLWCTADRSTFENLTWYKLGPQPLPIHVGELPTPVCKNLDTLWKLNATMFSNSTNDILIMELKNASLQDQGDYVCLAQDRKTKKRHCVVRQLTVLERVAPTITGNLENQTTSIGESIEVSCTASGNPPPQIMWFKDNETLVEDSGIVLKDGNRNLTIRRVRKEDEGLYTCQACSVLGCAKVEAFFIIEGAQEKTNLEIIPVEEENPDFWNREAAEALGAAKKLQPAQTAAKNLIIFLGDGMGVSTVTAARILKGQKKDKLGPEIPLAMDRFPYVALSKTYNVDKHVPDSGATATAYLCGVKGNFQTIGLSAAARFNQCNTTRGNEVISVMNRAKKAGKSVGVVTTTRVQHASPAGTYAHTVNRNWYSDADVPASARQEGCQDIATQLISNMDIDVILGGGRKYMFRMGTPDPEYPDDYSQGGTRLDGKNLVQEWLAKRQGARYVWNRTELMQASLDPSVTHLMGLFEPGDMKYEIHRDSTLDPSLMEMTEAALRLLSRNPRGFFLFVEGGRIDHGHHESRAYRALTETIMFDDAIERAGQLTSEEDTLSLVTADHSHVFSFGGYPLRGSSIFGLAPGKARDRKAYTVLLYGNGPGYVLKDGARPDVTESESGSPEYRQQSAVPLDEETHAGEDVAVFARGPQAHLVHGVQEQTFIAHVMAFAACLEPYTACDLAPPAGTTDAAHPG
Chain of human KDR (VEGFR-2), immobilized on ELISA plates (construct not stated) (human) (P35968 20-764 limits assumed): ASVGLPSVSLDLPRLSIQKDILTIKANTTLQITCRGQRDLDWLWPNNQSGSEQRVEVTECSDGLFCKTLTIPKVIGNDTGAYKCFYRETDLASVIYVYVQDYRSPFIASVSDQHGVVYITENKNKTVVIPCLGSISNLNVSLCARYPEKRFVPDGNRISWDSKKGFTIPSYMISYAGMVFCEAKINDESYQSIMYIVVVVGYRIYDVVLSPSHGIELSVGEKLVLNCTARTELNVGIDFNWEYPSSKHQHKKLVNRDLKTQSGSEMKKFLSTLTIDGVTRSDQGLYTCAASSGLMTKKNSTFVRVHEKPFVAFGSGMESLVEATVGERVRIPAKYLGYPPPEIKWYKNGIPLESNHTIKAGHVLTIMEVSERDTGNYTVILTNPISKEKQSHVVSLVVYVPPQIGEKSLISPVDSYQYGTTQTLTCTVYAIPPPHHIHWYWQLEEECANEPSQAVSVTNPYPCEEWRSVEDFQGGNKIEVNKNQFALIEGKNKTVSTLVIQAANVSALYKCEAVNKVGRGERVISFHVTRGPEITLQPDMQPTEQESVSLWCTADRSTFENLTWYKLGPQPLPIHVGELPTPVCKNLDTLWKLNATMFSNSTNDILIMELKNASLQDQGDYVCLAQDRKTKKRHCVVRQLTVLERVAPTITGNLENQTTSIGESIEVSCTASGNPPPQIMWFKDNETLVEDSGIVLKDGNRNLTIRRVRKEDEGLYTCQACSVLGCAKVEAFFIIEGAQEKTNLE
Chain of KDR (VEGFR-2) expressed on the surface of HUVEC (human) (P35968 20-1356): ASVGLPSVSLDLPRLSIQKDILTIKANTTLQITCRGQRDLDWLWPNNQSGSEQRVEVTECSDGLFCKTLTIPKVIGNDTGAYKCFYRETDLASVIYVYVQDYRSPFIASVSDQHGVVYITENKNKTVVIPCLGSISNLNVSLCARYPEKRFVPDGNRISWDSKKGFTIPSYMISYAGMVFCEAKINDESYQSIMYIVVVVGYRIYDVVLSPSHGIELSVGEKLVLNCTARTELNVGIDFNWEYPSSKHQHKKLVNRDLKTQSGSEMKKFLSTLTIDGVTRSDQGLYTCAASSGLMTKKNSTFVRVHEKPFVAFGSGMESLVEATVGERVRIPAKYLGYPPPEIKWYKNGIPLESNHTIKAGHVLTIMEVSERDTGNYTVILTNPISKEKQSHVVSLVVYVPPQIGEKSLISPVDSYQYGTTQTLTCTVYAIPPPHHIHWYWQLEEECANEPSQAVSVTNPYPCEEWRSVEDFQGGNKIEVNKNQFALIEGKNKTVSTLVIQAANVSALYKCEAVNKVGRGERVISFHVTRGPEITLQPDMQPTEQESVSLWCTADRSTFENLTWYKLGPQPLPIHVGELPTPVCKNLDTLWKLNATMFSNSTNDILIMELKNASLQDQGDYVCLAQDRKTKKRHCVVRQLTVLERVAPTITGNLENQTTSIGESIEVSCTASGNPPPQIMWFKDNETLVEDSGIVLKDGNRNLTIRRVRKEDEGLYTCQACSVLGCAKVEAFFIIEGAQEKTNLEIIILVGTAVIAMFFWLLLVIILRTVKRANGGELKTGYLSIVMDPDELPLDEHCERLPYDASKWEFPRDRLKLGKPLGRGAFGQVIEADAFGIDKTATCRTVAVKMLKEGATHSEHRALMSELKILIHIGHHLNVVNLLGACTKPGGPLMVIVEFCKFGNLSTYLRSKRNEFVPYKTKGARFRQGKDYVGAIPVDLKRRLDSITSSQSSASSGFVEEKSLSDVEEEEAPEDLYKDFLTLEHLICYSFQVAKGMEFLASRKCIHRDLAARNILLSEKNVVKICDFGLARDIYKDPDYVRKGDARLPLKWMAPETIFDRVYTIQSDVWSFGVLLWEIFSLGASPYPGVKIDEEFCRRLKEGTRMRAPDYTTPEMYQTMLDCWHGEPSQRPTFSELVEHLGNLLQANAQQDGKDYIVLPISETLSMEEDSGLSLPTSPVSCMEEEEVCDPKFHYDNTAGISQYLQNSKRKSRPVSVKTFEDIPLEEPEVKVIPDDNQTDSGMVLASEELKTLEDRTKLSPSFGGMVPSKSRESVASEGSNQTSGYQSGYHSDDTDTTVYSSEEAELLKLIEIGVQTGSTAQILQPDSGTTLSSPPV

B1: anti-KDR (VEGFR-2) single chain antibody scFv p1C11 (scFv, from a related filing, not shown: small tags and cut ends)
scFv: QVKLQQSGAELVGSGASVKLSCTTSGFNIKDFYMHWVKQRPEQGLEWIGWIDPENGDSDYAPKFQGKATMTADSSSNTAYLQLSSLTSEDTAVYYCNAYYGDYEGYWGQGTTVTVSSGGGGSGGGGSGGGGSDIELTQSPAIMSASPGEKVTITCSASSSVSYMHWFQQKPGTSPKLWIYSTSNLASGVPARFSGSGSGTSYSLTISRMEAEDAATYYCQQRSSYPFTFGSGTKLEIK
As usually defined, the koff is the rate constant with which the complex falls apart. For orientation: kon means the second-order rate constant of association. A word on the Kd: it is the free concentration of one partner at which half of the binding sites on the other are occupied at equilibrium, for simple one-to-one binding. The term IC50 denotes the point on the concentration scale where inhibition reaches its midpoint. By EC50 (read off the curve) is commonly meant the concentration needed to bring the measured effect to its halfway point. As a reminder, the EC50 is the midpoint of the concentration-response curve. Take B1: in assay [1], the koff came out at 0.000227 s⁻¹ and the kon is 111000 M⁻¹ s⁻¹. In assay [2], this molecule displayed an EC50 of inhibition of VEGF induced DNA synthesis ([3H]-TdR) in HUVEC of 5 nM and an antibody concentration required to inhibit 50% of VEGF-induced mitogenesis of HUVEC of 6 nM. In assay [3], this molecule returned a Kd of 2.1 nM, a koff of 0.00023 s⁻¹ and an association rate constant (kon) of 110000 M⁻¹ s⁻¹. For the same molecule, in assay [4], the IC50 came out at 3 nM. This molecule also yielded an EC50 (read off the curve) in assay [5] of 1 nM. This molecule showed a 50% inhibitory concentration (IC50) in assay [6] of 2 nM. Moreover, the EC50 in [7] worked out at 0.3 nM.

B2: rat anti-mouse flk-1 (VEGFR-2) monoclonal antibody DC-101 (antibody, from another filing, V domains shown)
VH: EVQLVETGGGLVQPGNSLKLSCATSGFIFSTTWMNWIRQTPGKRLEWLAQIEDKSNNYFISYSESVKGRFTISRDDSKSSVYLQMNNLKEEDTAIYYCSWKYRSNYYFDYWGQGVMVTVSS
VL: DIVLTQSPALAVSLEQRATISCKTSQNVDYYGISYLHWYQQKPGQQPKLLIYEGSNLASGIPARFSGSGSGTDFTLTIDPVEADDIVTYYCQQSKDYPYTFGAGTKLELKR
Consider B2, for which the phosphorylation of flk-1 (VEGFR-2) by VEGF165 (40 ng/ml), antibody titration in [8] was > 0.5 µg/mL and < 1 µg/mL. In assay [8] (setting [10]), this molecule displayed a phosphorylation level by densitometry, antibody added with ligand (C) of 40 and a phosphorylation level by densitometry, antibody prebound (P) of 6. In assay [9], the relative apparent affinity came out at 500 ng/mL.
